Among the data in the Immune Epitope Database (IEDB) are Kd values, retold here.

The first test deals with HLA-A*02:01. As to the kind of experiment: IEDB peptide-MHC binding, purified MHC/direct/fluorescence; filed as Kd, often an IC50 or EC50 that approximates it; ≥ and ≤ were set here for values at or beyond the usual limits of such assays. The conditions noted are these: source organism: Entamoeba histolytica HM-1:IMSS.
By Kd is commonly meant the constant that tells how readily two partners part at equilibrium. NVGRILGYV showed a Kd of 146 nM.

The test is the same for the next values; noted with them: source organism: Francisella tularensis subsp. tularensis.
Sequence FLYGWLFIL yielded an equilibrium dissociation constant (Kd) of 102 nM.

A further test has as its target HLA-A*03:01. The description is as above. The conditions noted are these: source organism: Francisella tularensis subsp. holarctica OSU18.
KMLEASTIY: the Kd is 190 nM.

For another test, the target named is HLA-A*69:01. Described as above. The conditions noted are these: source organism: Brucella abortus 2308.
Sequence QMDGAILVV yielded a dissociation constant Kd of 3440 nM.

Still in this test, the particulars now being: source organism: Entamoeba histolytica HM-1:IMSS.
Regarding NVGRILGYV, the Kd was determined as 3.7 nM.

Still in this test, the particulars now being: source organism: Haemophilus influenzae.
Sequence ATHKAPQPA yielded a Kd of 3820 nM.

The test is the same for the next values; noted with them: source organism: Mycobacterium tuberculosis.
FLHGGDFGV yielded a Kd of 690 nM.

A further test has as its target HLA-A*02:02. Briefly: IEDB peptide-MHC binding, purified MHC/competitive/radioactivity; filed as Kd, often an IC50 or EC50 that approximates it; ≥ and ≤ were set here for values at or beyond the usual limits of such assays. The conditions noted are these: source organism: Mammarenavirus brazilense.
As for LRYFIMAYV, the Kd was found to be 213 nM.

The same test, now with this note: source organism: Mammarenavirus whitewaterense.
With VCFWSTLFYV, the Kd was found to be 348 nM.

On to FLLRGPFEAS, for which the equilibrium dissociation constant (Kd) worked out at 27.1 nM.

The same test, now with this note: source organism: SARS coronavirus Tor2.
For CVMYASALV, the Kd turned out to be 4.48 nM.

As for SLVKPTVYV, the equilibrium dissociation constant (Kd) is 108 nM.

As to CLDAGINYV, the equilibrium dissociation constant (Kd) is 0.569 nM.

In the case of MLLTFLTSLL, the dissociation constant (Kd) was found to be 0.734 nM.

Turning to TLIDFYLCFL, the Kd stood at 0.0405 nM.

The same test, now with this note: source organism: Vaccinia virus WR.
Regarding RALKAYFTA, the equilibrium dissociation constant (Kd) came to 2350 nM.

In the case of RIYCSLFKNV, the Kd turned out to be 913 nM.

As to LVQYRILPMI, the equilibrium dissociation constant (Kd) is 12500 nM.

Take DTSPTKRCRL: the Kd is 12200 nM.

For the sequence GVLPEETNI, the equilibrium dissociation constant (Kd) turned out to be 17300 nM.

For AVKFAEESYT, the dissociation constant Kd was determined as 1760 nM.

QLVFNSISA: the equilibrium dissociation constant (Kd) was 4800 nM.

Turning to LLNVQTLISL, the Kd is 23.7 nM.

As for EQYTCNKPYT, the dissociation constant (Kd) was 14000 nM.

Turning to DVGCLLTDTI, the Kd stood at 10700 nM.

For the sequence LTSNCTRTT, the equilibrium dissociation constant (Kd) was not below 77800 nM.

On to DLNAVTTNNL, for which the Kd is 1830 nM.

As for FLTGTFVTA, the Kd was found to be 4.69 nM.

Turning to EQGDIALAL, the equilibrium dissociation constant (Kd) was 701 nM.

On to LVMDKNHAI, for which the equilibrium dissociation constant (Kd) worked out at 19 nM.

For the sequence MISTYPGNT, the Kd came to 5490 nM.

On to MLNRVQILM, for which the dissociation constant Kd was 4.75 nM.

As for VAEHRFENM, the dissociation constant Kd was 7130 nM.

GILIYDDNI: the Kd came to 11700 nM.

With DLLLPSTDV, the Kd was determined as 15100 nM.

As for IICEDAMYYA, the Kd worked out at 24 nM.

Consider DVEKRILNT, for which the dissociation constant (Kd) amounted to 5820 nM.

As to NIDSIMSMM, the Kd was 25 nM.

In the case of HVLLPFYET, the Kd is 16400 nM.

With FTKDGKLDDT, the equilibrium dissociation constant (Kd) came out at 145 nM.

ITDNGPMPYM: the Kd stood at 828 nM.

KTPLYYLSGT: the Kd was not below 21900 nM.

On to DLFMSHVKSV, for which the Kd was found to be 3380 nM.

Consider KIKQTGINNV, for which the Kd came to 237 nM.

Turning to STQQNKLVI, the Kd was not below 53000 nM.

For IALCKVTVPT, the dissociation constant Kd was found to be 1950 nM.

TIILNKIVQL: the Kd turned out to be 1760 nM.

Regarding DAIKSNNHLT, the dissociation constant (Kd) was not below 27400 nM.

As to LMTLDDLAI, the dissociation constant (Kd) turned out to be 51.7 nM.

Another test has as its target HLA-A*02:03. The description is as above. The conditions noted are these: source organism: Mammarenavirus brazilense.
For LRYFIMAYV, the Kd was 395 nM.

The test is the same for the next values; noted with them: source organism: Mammarenavirus whitewaterense.
For VCFWSTLFYV, the Kd turned out to be 7010 nM.

As for FLLRGPFEAS, the Kd turned out to be 83.5 nM.

The same test, now with this note: source organism: SARS coronavirus Tor2.
As for CVMYASALV, the Kd is 2.94 nM.

Regarding SLVKPTVYV, the equilibrium dissociation constant (Kd) amounted to 37.2 nM.

Regarding CLDAGINYV, the Kd turned out to be 6.43 nM.

For MLLTFLTSLL, the equilibrium dissociation constant (Kd) was determined as 7.34 nM.

As to TLIDFYLCFL, the Kd was 3.57 nM.

Still in this test, the particulars now being: source organism: Vaccinia virus WR.
Turning to RALKAYFTA, the equilibrium dissociation constant (Kd) was 204 nM.

Take RIYCSLFKNV: the dissociation constant Kd is 29.6 nM.

On to LVQYRILPMI, for which the dissociation constant Kd was 1200 nM.

On to DTSPTKRCRL, for which the Kd was not below 37100 nM.

In the case of GVLPEETNI, the equilibrium dissociation constant (Kd) was not below 20400 nM.

For AVKFAEESYT, the Kd was found to be 1470 nM.

As for QLVFNSISA, the Kd came out at 1560 nM.

Turning to LLNVQTLISL, the Kd turned out to be 16.1 nM.

Regarding EQYTCNKPYT, the Kd was 3010 nM.

With DVGCLLTDTI, the Kd turned out to be 15600 nM.

As for LTSNCTRTT, the Kd was not below 29600 nM.

Consider DLNAVTTNNL, for which the Kd was 1630 nM.

For FLTGTFVTA, the dissociation constant Kd stood at 0.712 nM.

Turning to EQGDIALAL, the dissociation constant (Kd) was found to be 11100 nM.

As to LVMDKNHAI, the dissociation constant (Kd) worked out at 770 nM.

With MISTYPGNT, the Kd came to 229 nM.

Take MLNRVQILM: the Kd was 26.9 nM.

For VAEHRFENM, the dissociation constant (Kd) worked out at 7160 nM.

GILIYDDNI: the Kd is 1700 nM.

Turning to DLLLPSTDV, the dissociation constant Kd was found to be 3900 nM.

For the sequence IICEDAMYYA, the Kd came to 108 nM.

Turning to DVEKRILNT, the Kd is 6720 nM.

With NIDSIMSMM, the Kd is 874 nM.

HVLLPFYET: the dissociation constant (Kd) came to 18600 nM.

For the sequence FTKDGKLDDT, the Kd worked out at 187 nM.

In the case of ITDNGPMPYM, the Kd was determined as 1180 nM.

As to KTPLYYLSGT, the Kd is 3110 nM.

As for DLFMSHVKSV, the Kd was determined as 41.7 nM.

For the sequence KIKQTGINNV, the dissociation constant Kd stood at 3.12 nM.

Regarding STQQNKLVI, the Kd was 14400 nM.

As for IALCKVTVPT, the Kd is 2220 nM.

Take TIILNKIVQL: the Kd was not below 49300 nM.

For DAIKSNNHLT, the Kd turned out to be 17900 nM.
